Experimental data reported in article PMC2673437 (Nucleic Acids Research, 2009).
Read-outs that look alike come from different tables or passages of the source. Where no end group is shown, it is not given here. The star is where a group is joined. Biotin = O=C1N[C@H]2[C@H](CS[C@H]2CCCCC(=O)*)N1

T1: Bacillus stearothermophilus DnaB helicase (B. stearothermophilus, UniProt Q9X4C9 1-454)
T1 sequence (looked up): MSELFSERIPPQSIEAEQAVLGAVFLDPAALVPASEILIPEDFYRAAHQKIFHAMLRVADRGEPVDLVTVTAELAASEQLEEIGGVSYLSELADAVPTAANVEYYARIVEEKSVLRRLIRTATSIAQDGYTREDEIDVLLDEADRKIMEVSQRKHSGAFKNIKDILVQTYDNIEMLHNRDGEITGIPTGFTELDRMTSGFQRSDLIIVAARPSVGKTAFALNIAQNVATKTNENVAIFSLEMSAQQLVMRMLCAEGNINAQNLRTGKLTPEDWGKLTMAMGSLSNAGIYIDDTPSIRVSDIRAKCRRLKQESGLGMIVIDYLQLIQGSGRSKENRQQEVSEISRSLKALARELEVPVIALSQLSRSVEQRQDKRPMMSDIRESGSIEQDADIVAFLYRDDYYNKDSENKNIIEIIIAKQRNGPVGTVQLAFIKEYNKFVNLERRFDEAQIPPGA


Legend:
[1] = biological target: T1, Bacillus stearothermophilus DnaB …; experiment: SPR
[2] = biological target: T1, Bacillus stearothermophilus DnaB …; experiment: SPR; remark: listed apart in the source

Binder | Kd [1] | stoichiometry N [1] | Kd [2]
MEPIGRSLQGVTGRPDFQ [unmodified peptide corresponding to residues 1-18 of DnaI] | > 140 µM | – | –
DnaI-N123 (residues 1-123 of B. subtilis DnaI) (domain or fragment, UniProt P06567 1-123, looked up) MEPIGRSLQGVTGRPDFQKRLEQMKEKVMKDQDVQAFLKENEEVIDQKMIEKSLNKLYEYIEQSKNCSYCSEDENCNNLLEGYHPKLVVNGRSIDIEYYECPVKRKLDQQKKQQSLMKSMYIQ | 7.3 µM | 1.7 molecules per Bst DnaB subunit | –
DnaI-N132 (residues 1-132 of B. subtilis DnaI, C-terminal His6) (domain or fragment, UniProt P06567 1-132, looked up) MEPIGRSLQGVTGRPDFQKRLEQMKEKVMKDQDVQAFLKENEEVIDQKMIEKSLNKLYEYIEQSKNCSYCSEDENCNNLLEGYHPKLVVNGRSIDIEYYECPVKRKLDQQKKQQSLMKSMYIQQDLLGATFQ | 0.65 µM | 0.8 molecules per Bst DnaB subunit | –

More lines, now with the values ahead:

Kd [1] | stoichiometry N [1] | Kd [2] | Binder
18.5 µM | 1.8 molecules per Bst DnaB subunit | – | DnaI-N106 (N-terminal 106 residues of B. subtilis DnaI) (domain or fragment, UniProt P06567 1-106, looked up) MEPIGRSLQGVTGRPDFQKRLEQMKEKVMKDQDVQAFLKENEEVIDQKMIEKSLNKLYEYIEQSKNCSYCSEDENCNNLLEGYHPKLVVNGRSIDIEYYECPVKRK
– | – | ≥ 50 µM | Biotin-SGMEPIGRSLQGVTGRPDFQ [N-terminally biotinylated DnaI-N-peptide (DnaI residues 1-18, preceded by biotin-Ser-Gly)]
